Measurements as given in publication PMC8411030.

Target: N-terminal domain of NOEY2 (NOEY2-N), LexA fusion (pGilda/LexA-NOEY2-N) (human) (UniProt O95661)
Test: two-hybrid

UniProt O95661, sequence (O95661 whole entry, the tested form may be a part): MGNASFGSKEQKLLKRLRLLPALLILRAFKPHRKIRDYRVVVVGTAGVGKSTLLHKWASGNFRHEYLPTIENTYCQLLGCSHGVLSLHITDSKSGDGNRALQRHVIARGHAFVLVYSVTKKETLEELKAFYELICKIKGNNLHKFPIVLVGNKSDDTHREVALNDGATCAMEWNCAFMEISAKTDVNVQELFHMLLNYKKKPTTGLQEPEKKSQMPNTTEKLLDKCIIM

VEGFR-2, B42 fusion (pJG4-5) (from UniProt P35968 1-1356) (receptor)
β-galactosidase activity: 92.2 unit
